This is an account of results in US20190100602A1 (INSERM INSTITUT NATIONAL DE LA SANT ET DE LA RECHERCHE M …, published 2019).

Experiment [1] addresses T1, human antithrombin (human, UniProt P01008 33-464). Put plainly: cell-based or functional assay.
Experiment [2] has as its target T1, human antithrombin. Put plainly: BLI (Octet-QK), sdAb coupled to sensor, antithrombin 12.5-50 ug/ml; apparent KD. The method, then:
The interaction between sdAbs KB-AT-001, KB-AT-002, KB-AT-003 and KB-AT-006 versus human antithrombin was further analyzed via biolayer-interferometry analysis using Octet-QK equipment in order to determine apparent dissociation constants (KD,app). To this end, sdAbs KB-AT-001, KB-AT-002, KB-AT-003 and KB-AT-006 were diluted in 0.1 M Mes (pH 5.0) to a concentration of 200 microgram/ml for coupling to EDC/NHS-activated amine-reactive biosensors (Fort6bio, Menlo Park, Calif., USA). Sensors were rehydrated in 0.2 ml 0.1 M MES, pH 5.0 for 300 sec. Sensors were then activated via incubation with 0.1 ml 0.2 M EDC/0.095 M NHS mixture for 300 sec and subsequently incubated with 0.1 ml sdAb-solution for 600 sec. […] Following this association phase, sensors were transferred to wells containing PBS-T and incubated for 900 sec, allowing dissociation of the antithrombin-sdAb complex. Obtained data were subsequently analyzed using Octet-QK data analysis software (Origin vs 4) to estimate KD,app.

For experiment [3], the target named is T1, human antithrombin. The experiment can be described thus: cell-based or functional assay. This is another data set of the same source.
The target of experiment [4] is T2, murine antithrombin (mouse, UniProt P32261 33-465).
T2 construct: also called mouse antithrombin; murine AT
Put plainly: ELISA: sdAb coated on the plate, antithrombin added in solution; the concentration is that of antithrombin. The method, then:
(§1) sdAbs recognizing antithrombin (KB-AT-001, -002, -003, -004, -005, -006, and -007) were immobilized (5 microgram/ml) in 10 mM NaHCO₃, 50 mM Na2CO3 (pH 9.5) in a volume of 50 microliter in half-well microtiter plates (Greiner Bio-One, Les Ulis, France) for 16 h at 4° C. After washing the wells three times with 100 microliter/well using Tris-buffered saline (pH 7.6) supplemented with 0.1% Tween-20 (TBS-T), wells were blocked with 100 microliter/well of TBS-T supplemented with 5% skimmed milk for 30 min at 37° C. Wells were washed as described above, and subsequently different concentrations of purified human antithrombin or murine antithrombin (0-5 micromolar diluted in Tris-buffered saline (pH 7.6) supplemented with 5% skimmed milk; 50 microliter/well) were added to each of the immobilized sdAbs and incubated for 2 hours. Wells were then washed three times with 100 microliter/well using TBS-T. Bound antithrombin was probed with peroxidase-labeled polyclonal rabbit anti-antithrombin antibodies (Diagnostica Stago, Asnièrs-sur-Seine, France; Dilution 1/100) for 1 hour at 37° C. with 50 microliter per well. Wells were then washed three times with 100 microliter/well using TBS-T. Residual peroxidase activity was detected by measuring peroxidase-mediated hydrolysis of 3,3′,5,5′-tetramethylbenzidine. OD-values were plotted against antithrombin concentrations (FIG. 1).
Background: An ELISA detects its analyte on a solid surface through an enzyme-linked reagent.

Experiment [5] deals with T1, human antithrombin. Described as above. As for the experimental part:
as §1

The target of experiment [6] is T2, murine antithrombin. The experiment can be described thus: ELISA, sdAb coated, plasma 1/4, bound antithrombin probed with polyclonal anti-antithrombin; grade by OD. As for the experimental part:
(§2) sdAbs KB-AT-001, -002. -003, -004, -005, -006, and -007 were immobilized (10 microgram/ml) in 10 mM NaHCO₃, 50 mM Na2CO3 (pH 9.5) in a volume of 50 microliter in half-well microtiter plates (Greiner Bio-One, Les Ulis, France) for 16 h at 4° C. As a positive control, polyclonal anti-antithrombin antibodies (MATIII-EIA kit, Affinity biologicals, Ancaster Canada) were immobilized in a similar fashion. As a negative control, the anti-von Willebrand sdAb KB-VWF-006 was immobilized. After washing the wells three times with 100 microliter/well using Tris-buffered saline (pH 7.6) supplemented with 0.1% Tween-20 (TBS-T), wells were blocked with 100 microliter/well of TBS-T supplemented with 3% bovine serum albumin (BSA) for 30 min at 37° C. Wells were washed as described above, and subsequently the following plasma preparations (diluted ¼ in TBS-T/3% BSA, 100 microliter per well, 2 hours at 37° C.) were added to each of the immobilized sdAbs and both types of control wells: rabbit plasma, canine plasma, simian plasma, bovine plasma, porcine plasma, rat plasma, murine plasma and human plasma.
(§3) Wells were then washed three times with 100 microliter/well using TBS-T. Bound antithrombin was probed with peroxidase-labeled polyclonal anti-antithrombin antibodies (MATIII-EIA kit, Affinity biologicals, Ancaster Canada; diluted 1/100) for 2 hours at 37° C. with 50 microliter per well. Wells were then washed three times with 100 microliter/well using TBS-T. Residual peroxidase activity was detected by measuring peroxidase-mediated hydrolysis of 3,3′,5,5′-tetramethylbenzidine.
(§4) Negative binding (−) was defined as optical density (OD) being ≤0.1, moderate positive binding (+) was defined as OD being >0.1 and <0.5, strongly positive binding (++) was defined as OD being ≥0.5. […] All plasma preparations had moderate or strongly positive binding to the positive control (polyclonal anti-antithrombin antibodies).

In experiment [7] the target is T1, human antithrombin. Described as above. The method, then: as §2, §3, §4
A further experiment deals with T3, rabbit antithrombin (rabbit).
T3 construct: Native protein in plasma diluted 1/4; also called rabbit AT; antithrombin in rabbit plasma
Described as above. As for the experimental part: as §2, §3, §4

The target in a further experiment is T4, canine antithrombin (canine).
T4 construct: Native protein in plasma diluted 1/4; also called canine AT; antithrombin in canine plasma
Described as above. As for the experimental part:
as §2, §3, §4

The target of a further experiment is T5, porcine antithrombin (porcine).
T5 construct: Native protein in plasma diluted 1/4; also called porcine AT; antithrombin in porcine plasma
Described as above. As for the experimental part: as §2, §3, §4

The next experiment addresses T6, bovine antithrombin (bovine, UniProt P41361 33-465).
T6 construct: Native protein in plasma diluted 1/4; also called bovine AT; antithrombin in bovine plasma
The description is as above. As for the experimental part: as §2, §3, §4

A further experiment addresses T7, simian antithrombin (simian).
T7 construct: Native protein in plasma diluted 1/4; also called simian AT; antithrombin in simian plasma
The experiment is described as above. The method, then:
as §2, §3, §4

For the next experiment, the target named is T8, rat antithrombin (rat, UniProt Q8VHJ4).
T8 construct: Native protein in plasma diluted 1/4; also called rat AT; antithrombin in rat plasma
The description is as above. The method, then:
as §2, §3, §4

T1 sequence (P01008 33-464 limits assumed): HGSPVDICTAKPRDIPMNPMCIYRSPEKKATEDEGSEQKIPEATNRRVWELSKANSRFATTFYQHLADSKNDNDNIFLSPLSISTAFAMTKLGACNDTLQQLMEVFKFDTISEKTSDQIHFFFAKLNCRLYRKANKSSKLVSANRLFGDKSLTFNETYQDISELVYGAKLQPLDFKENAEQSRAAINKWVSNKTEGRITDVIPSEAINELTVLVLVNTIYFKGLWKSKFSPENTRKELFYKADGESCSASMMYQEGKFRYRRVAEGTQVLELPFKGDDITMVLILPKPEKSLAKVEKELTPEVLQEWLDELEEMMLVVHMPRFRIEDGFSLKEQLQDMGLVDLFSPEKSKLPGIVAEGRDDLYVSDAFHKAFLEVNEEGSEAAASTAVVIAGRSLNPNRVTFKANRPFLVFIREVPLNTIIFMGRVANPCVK
T2 sequence (P32261 33-465 limits assumed): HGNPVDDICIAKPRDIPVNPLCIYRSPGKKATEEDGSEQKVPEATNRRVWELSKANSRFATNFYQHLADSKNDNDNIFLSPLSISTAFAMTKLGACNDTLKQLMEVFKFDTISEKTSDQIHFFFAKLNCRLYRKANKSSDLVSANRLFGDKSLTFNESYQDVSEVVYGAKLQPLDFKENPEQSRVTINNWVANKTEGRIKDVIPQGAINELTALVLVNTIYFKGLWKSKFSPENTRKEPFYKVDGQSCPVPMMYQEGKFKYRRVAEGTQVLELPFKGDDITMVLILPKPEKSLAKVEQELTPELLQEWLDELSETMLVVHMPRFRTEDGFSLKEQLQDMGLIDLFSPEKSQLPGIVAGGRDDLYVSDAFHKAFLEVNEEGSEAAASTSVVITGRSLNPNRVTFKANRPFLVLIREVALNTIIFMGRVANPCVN
T6 sequence (P41361 33-465): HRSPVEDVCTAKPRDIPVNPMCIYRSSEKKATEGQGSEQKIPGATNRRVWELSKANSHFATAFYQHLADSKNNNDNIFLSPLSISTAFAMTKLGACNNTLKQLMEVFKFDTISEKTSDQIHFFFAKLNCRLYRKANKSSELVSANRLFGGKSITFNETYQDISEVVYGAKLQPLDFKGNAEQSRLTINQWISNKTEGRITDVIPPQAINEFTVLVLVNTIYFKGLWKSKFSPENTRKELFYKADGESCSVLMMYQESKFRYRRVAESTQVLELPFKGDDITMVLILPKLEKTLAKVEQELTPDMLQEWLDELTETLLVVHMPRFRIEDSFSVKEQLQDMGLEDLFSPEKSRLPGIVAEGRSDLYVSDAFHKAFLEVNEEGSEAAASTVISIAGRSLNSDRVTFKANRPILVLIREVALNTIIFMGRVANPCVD

B1: KB-AT-002 (VHH)
VHH: QVQLVQSGGGLVQAGGSLRLSCAASGRTFNNNGMGWFRQAPGKEREFVAAISWSGGSTYYADSVKGRYIMSRDNAKNTVYLQMNSLKPEDTAVYYCAARTRYNSGLFSRNYDYWGQGTQVTVSS
notes: Monovalent anti-antithrombin single-domain antibody; also called sdAb KB-AT-002
In general, EC50 (read off the curve) refers to the concentration needed to bring the measured effect to its halfway point. A lower EC50 (read off the curve) goes with an effect from little substance. As to B1, the “% antithrombin neutralization (thrombin amidolytic activity on S-2238, no heparin)” value with human antithrombin [1] was 65%. Besides, in the experiment with human antithrombin [2], the Kd was determined as 4 nM. The “percentage of neutralization of antithrombin-mediated factor Xa inhibition, with LMW-heparin” value in the experiment with human antithrombin [3] was less than 15%. The “percentage of neutralization of antithrombin-mediated thrombin inhibition, with unfractionated heparin” value in the experiment with human antithrombin [3] is less than 5%. Further, the “EC50 (read off the curve)” value is approximately 500 nM with murine antithrombin [4] and approximately 600 nM with human antithrombin [5]. The OD with murine antithrombin [6], with human antithrombin [7], with rabbit antithrombin, in the experiment with canine antithrombin, in the experiment with porcine antithrombin and in the experiment with bovine antithrombin was not below 0.5 od each time. Also, the OD in the experiment with simian antithrombin and with rat antithrombin was not below 0.5 od each time.
